Legend:
[1] = tested on: O=C(O)CC(C(=O)O)C(O)C(=O)O; test: purified protein; conditions: 0.05 M NaCl, 0.8 mM NADP+, 1 mM MgCl2, 32.5 mM Tris/HCl pH 7.5, concentration as DL-isocitrate, text b40 prints 0.010 mM, the table's Vmax/Km fits 0.019
[2] = tested on: O=C(O)CC(=O)C(=O)O; test: purified protein; conditions: 0.05 M NaCl, 0.3 mM NADH, 32.5 mM Tris/HCl pH 7.5

Substance | Km [1] | Vmax [1] | Km [2] | Vmax [2]
ICDHS.salinarum (Schmidingerothrix salinarum) | 19 µM | 6.8 µmol/min/mg |  | 
MDHS.salinarum (Schmidingerothrix salinarum) |  |  | 38 µM | 2060 µmol/min/mg

Source: article PMC5794333, “Identification of osmoadaptive strategies in the halophile, heterotrophic ciliate Schmidingerothrix salinarum” (PLoS Biology, 2018)
